Data published in patent publication US20250002610A1 (Genmab, published 2025).

What was measured:
[1] = target: T1, human DR4 (Death Receptor 4), cell surface expressed on human tumor cell lines (human, UniProt O00220 24-468); assay: flow cytometry, HCT-15 cells, n = 3
T1 construct: also called TNFRSF10A; TRAIL-R1
T1 sequence: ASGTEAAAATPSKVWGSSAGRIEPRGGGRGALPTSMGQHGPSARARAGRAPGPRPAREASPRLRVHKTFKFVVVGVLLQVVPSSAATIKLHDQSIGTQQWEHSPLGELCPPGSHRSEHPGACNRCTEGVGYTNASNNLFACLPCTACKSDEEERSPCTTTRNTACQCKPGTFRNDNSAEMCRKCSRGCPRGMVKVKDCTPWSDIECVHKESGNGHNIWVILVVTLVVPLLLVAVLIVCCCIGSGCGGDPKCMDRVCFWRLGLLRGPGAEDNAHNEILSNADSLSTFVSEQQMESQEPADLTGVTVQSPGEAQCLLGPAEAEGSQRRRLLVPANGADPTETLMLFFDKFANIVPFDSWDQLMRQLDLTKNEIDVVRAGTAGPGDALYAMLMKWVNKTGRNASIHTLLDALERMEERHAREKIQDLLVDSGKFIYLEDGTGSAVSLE

[2] = target: T1, human DR4 (Death Receptor 4), cell …; assay: flow cytometry, HCT-116 cells, n = 2
[3] = target: T1, human DR4 (Death Receptor 4), cell …; assay: flow cytometry, MDA-MB-231 cells, n = 2
[4] = target: T2, pig FAPα on Expi293F cells (pig (Sus scrofa), UniProt A5D7B7 1-760 (bovine entry)); assay: flow cytometry on Expi293F cells transiently expressing pig FAPα, gMFI PE
T2 chain: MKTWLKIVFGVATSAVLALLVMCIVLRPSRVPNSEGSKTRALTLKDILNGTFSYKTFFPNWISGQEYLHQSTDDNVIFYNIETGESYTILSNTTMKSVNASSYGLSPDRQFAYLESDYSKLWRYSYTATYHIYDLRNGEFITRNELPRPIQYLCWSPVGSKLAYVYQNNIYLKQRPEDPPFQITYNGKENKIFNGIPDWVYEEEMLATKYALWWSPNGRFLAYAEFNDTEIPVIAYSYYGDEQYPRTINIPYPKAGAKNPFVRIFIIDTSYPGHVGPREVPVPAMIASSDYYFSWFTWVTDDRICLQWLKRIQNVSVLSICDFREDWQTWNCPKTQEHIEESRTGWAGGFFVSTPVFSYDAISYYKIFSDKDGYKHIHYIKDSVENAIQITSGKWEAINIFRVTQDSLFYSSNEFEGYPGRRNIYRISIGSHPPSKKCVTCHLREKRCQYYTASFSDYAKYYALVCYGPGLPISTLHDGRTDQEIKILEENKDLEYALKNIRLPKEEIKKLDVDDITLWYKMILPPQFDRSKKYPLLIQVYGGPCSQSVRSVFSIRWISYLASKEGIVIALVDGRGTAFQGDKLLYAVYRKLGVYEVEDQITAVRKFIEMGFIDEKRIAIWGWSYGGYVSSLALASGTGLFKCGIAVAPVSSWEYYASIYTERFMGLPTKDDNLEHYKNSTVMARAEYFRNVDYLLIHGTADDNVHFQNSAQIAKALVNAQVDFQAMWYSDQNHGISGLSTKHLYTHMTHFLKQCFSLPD
Method: Binding of BisG1-FAPα-FERL/DR4-FERR, BisG1-FAPα-FEAL/b12-FEAR and IgG1-FAPα-FERL to FAPα of species commonly used for nonclinical toxicology studies was assessed by flow cytometry using Expi293F cells transiently expressing FAPα from different animal species. IgG1-b12 was included as negative control.
Expi293F cells expressing recombinant FAPα from various species (human, cynomolgus monkey, dog, pig, rat or mouse) were seeded (20,000 cells/well) in 96-Well round bottom plates (Greiner Bio-one, Cat #650101). Antibody dilutions were prepared using FACS buffer, consisting of PBS (Capricorn Scientific, Cat #PBS-10XA, diluted to 1×PBS in distilled water)+1% BSA (Roche, Cat #10735086001)+0.02% Sodium Azide (Bio-World, Cat #41920044-3). Plates were centrifuged, supernatant was removed, and cells were resuspended in 100 μL of antibody dilutions (concentration range 30-0.00017 μg/mL with three-fold serial dilutions using FACS buffer) of BisG1-FAPα-FERL/DR4-FERR, BisG1-FAPα-FEAL/b12-FEAR, IgG1-FAPα-FERL and IgG1-b12 and incubated for 30 min at 4° C. […] After 30 min incubation at 4° C., cells were washed with FACS buffer and resuspended in FACS buffer supplemented with TO-PRO-3 Iodide viability marker (Invitrogen, Cat #T3605, diluted 1:4,000). Antibody binding to viable cells (gMFI of PE on TO-PRO-3 negative cells) was analyzed by flow cytometry on a FACS Celesta and FACS_Diva software (first two experiments) or iQue® 3 and FlowJo software (last experiment). gMFI was determined and visualized using GraphPad Prism. Binding curves were analyzed using nonlinear regression analysis. The concentration (pg/mL) at which 50% of the maximal effect was observed (EC₅₀) was derived from the fitted curves.

B1: BisG1-FAPα-FERL/DR4-FERR (bispecific antibody, human IgG1, kappa, lambda)
heavy 1: EVQLLESGGGLVQPGGSPRLSCEASGFTFSSYALSWVRQAPGKGLEWVSAISGSGGGRYYADSVKGRFTISRDNSKNTLFLQMNSLRAEDTAVYYCAKEGYSSSGTYWDHWGQGTLVTVSSASTKGPSVFPLAPSSKSTSGGTAALGCLVKDYFPEPVTVSWNSGALTSGVHTFPAVLQSSGLYSLSSVVTVPSSSLGTQTYICNVNHKPSNTKVDKRVEPKSCDKTHTCPPCPAPEFERGPSVFLFPPKPKDTLMISRTPEVTCVVVDVSHEDPEVKFNWYVDGVEVHNAKTKPREEQYNSTYRVVSVLTVLHQDWLNGKEYKCKVSNKALPAPIEKTISKAKGQPREPQVYTLPPSREEMTKNQVSLTCLVKGFYPSDIAVEWESNGQPENNYKTTPPVLDSDGSFLLYSKLTVDKSRWQQGNVFSCSVMHEALHNHYTQKSLSLSPG
light 1: AIQMTQSPSSVSASVGDRVTITCRASQGVSSWLAWYQQKPGRAPKLLIYVASTLQSGVPSRFSGSGSGTDFTLTINSLQPEDFATYYCQQANSFPPTFGQGTRLEMKRTVAAPSVFIFPPSDEQLKSGTASVVCLLNNFYPREAKVQWKVDNALQSGNSQESVTEQDSKDSTYSLSSTLTLSKADYEKHKVYACEVTHQGLSSPVTKSFNRGEC
heavy 2: QVQLQESGPGLVKPSGTLSLTCAVSGGSISSYSWWSWIRQPPGKGLEWIGELYHSGSTNYNPSLKSRVTISVDKSKNQFSLKLRSVTAADTAVYYCVRGVATIDYWGQGTLVTVSSASTKGPSVFPLAPSSKSTSGGTAALGCLVKDYFPEPVTVSWNSGALTSGVHTFPAVLQSSGLYSLSSVVTVPSSSLGTQTYICNVNHKPSNTKVDKRVEPKSCDKTHTCPPCPAPEFERGPSVFLFPPKPKDTLMISRTPEVTCVVVDVSHEDPEVKFNWYVDGVEVHNAKTKPREEQYNSTYRVVSVLTVLHQDWLNGKEYKCKVSNKALPAPIEKTISKAKGQPREPQVYTLPPSREEMTKNQVSLTCLVKGFYPSDIAVEWESNGQPENNYKTTPPVLDSDGSFFLYSRLTVDKSRWQQGNVFSCSVMHEALHNHYTQKSLSLSPG
light 2: QSALTQPPSASGSPGQSVTISCTGTSSDVGGYNFVSWYQQDPGKAPKLLIYEVTKRPSGVPDRFSGSKSGNTASLTVSGLQAEDEADYYCSSYAGSNNVMFGGGTKLTVLGQPKAAPSVTLFPPSSEELQANKATLVCLISDFYPGAVTVAWKADSSPVKAGVETTTPSKQSNNKYAASSYLSLTPEQWKSHRSYSCQVTHEGSTVEKTVAPTECS
notes: Human IgG1 bispecific made by controlled Fab-arm exchange of IgG1-FAPα-FERL and IgG1-DR4-FERR; monovalent for FAPα and for DR4; also called GEN1057
[1]
  EC50: 0.68 µg/mL
[2]
  EC50: 0.55 µg/mL
[3]
  EC50: 1.24 µg/mL
[4]
  binding result: binds
